The results in this text go back to US20250381289A1 (Genmab, published 2025).

For assay [1], the target named is T1, cMET on EGFR and cMET co-expressed tumor cell lines (UniProt P08581 25-1390, limits assumed).
T1 construct: whole, on cells
Description: flow cytometry, EBC-1 cells (co-express EGFR and cMET; both arms contribute).
Description: EBC-1 was cultured with DMEM medium (Gibco, Cat #C11995500BT) containing 10% FBS. […] Each antibody was incubated with different cell lines (1×10⁵ cells/well) for 30 min in 0.2 mL FACS buffer (1×PBS with 0.1% BSA) at 4° C. After wash, cells were incubated with 100 μL PE-conjugated anti human Fc (Abcam, Ab98596, 1:500 dilution) for 30 min at 4° C. After wash with PBS, cells were resuspended in FACS buffer and analyzed by flow cytometer (Beckman, CytoFLEX).

Assay [2] addresses T1, cMET on EGFR and cMET co-expressed …. The assay is described as follows: flow cytometry, MKN-45 cells.
In assay [3] the target is T2, EGFR on EGFR and cMET co-expressed tumor cell lines (UniProt P00533 25-1210, limits assumed).
T2 construct: whole, on cells
Description: flow cytometry, SNU-5 cells (co-express EGFR and cMET; both arms contribute).

Assay [4] concerns the target T1, cMET on EGFR and cMET co-expressed …. The assay is described as above.
Assay [5] has as its target T2, EGFR on EGFR and cMET co-expressed …. Description: flow cytometry, EBC-1 cells (co-express EGFR and cMET; both arms contribute).
In assay [6] the target is T1, cMET on EGFR and cMET co-expressed …. Described as above. This is another data set of the same source.
The target of assay [7] is T2, EGFR on EGFR and cMET co-expressed …. The assay is described as follows: flow cytometry on EBC-1 cells (co-express EGFR and cMET), PE anti-human Fc; signal of the whole bispecific, not resolved by arm.
Description: (§1) EBC-1, ACHN and CAL-27 were cultured with DMEM medium (Gibco, Cat #C11995500BT) containing 10% FBS. […] Each antibody was incubated with different cell lines (1×10⁵ cells per well) for 30 mins in 0.2 mL FACS buffer (1×PBS with 0.1% BSA) at 4° C. After wash, cells were incubated with 100 μL PE-conjugated anti human Fc (Abcam, Ab98596, 1:500 dilution) for 30 mins at 4° C. After wash with PBS, cells were resuspended in FACS buffer and analyzed by flow cytometer (Beckman, CytoFLEX).
The target in assay [8] is T1, cMET on EGFR and cMET co-expressed …. The assay is described as above.
Description: as §1
In assay [9] the target is T2, EGFR on EGFR and cMET co-expressed …. Description: flow cytometry on CAL-27 cells (co-express EGFR and cMET), PE anti-human Fc; signal of the whole bispecific, not resolved by arm.
Assay [10] has as its target T1, cMET on EGFR and cMET co-expressed …. The description is as above.
Assay [11] has as its target T2, EGFR on EGFR and cMET co-expressed …. Description: flow cytometry on SNU-5 cells (co-express EGFR and cMET), PE anti-human Fc; signal of the whole bispecific, not resolved by arm.
Description: as §1
Assay [12] addresses T1, cMET on EGFR and cMET co-expressed …. Described as above.
Description: as §1

T1 sequence (P08581 25-1390 limits assumed): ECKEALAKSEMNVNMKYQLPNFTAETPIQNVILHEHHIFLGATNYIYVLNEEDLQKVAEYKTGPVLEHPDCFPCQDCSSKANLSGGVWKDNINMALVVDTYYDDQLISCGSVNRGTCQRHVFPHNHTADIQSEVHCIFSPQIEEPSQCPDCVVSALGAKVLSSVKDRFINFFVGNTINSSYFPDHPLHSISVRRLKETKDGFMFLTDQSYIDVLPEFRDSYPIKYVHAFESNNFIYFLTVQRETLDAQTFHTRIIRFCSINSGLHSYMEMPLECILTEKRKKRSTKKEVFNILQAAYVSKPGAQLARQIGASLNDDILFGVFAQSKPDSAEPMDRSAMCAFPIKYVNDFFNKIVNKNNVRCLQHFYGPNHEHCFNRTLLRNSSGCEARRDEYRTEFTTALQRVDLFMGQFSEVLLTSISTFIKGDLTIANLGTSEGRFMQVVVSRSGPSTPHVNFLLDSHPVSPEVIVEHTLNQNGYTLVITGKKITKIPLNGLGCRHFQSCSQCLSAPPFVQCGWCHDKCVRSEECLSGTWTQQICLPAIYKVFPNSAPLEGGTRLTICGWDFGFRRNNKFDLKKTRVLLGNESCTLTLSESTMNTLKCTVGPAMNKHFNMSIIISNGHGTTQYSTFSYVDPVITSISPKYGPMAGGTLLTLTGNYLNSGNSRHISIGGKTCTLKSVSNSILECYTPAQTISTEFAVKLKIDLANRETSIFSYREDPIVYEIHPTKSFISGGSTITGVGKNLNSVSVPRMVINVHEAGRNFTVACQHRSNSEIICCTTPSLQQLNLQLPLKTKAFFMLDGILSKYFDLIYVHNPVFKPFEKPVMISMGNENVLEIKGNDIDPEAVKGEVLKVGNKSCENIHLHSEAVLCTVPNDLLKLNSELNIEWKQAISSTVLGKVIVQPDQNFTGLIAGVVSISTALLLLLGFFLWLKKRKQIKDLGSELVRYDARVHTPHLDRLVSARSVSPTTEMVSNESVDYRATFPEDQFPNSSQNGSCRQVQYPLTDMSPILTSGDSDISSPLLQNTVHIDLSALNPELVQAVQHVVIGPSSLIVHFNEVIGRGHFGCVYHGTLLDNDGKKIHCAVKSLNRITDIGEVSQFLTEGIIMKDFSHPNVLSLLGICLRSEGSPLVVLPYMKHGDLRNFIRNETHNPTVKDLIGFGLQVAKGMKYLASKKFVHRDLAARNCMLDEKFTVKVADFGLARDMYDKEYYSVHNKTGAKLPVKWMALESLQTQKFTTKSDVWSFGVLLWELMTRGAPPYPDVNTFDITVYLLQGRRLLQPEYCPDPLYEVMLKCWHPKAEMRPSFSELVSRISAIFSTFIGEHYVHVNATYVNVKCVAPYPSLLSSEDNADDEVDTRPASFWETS

B1: Bsab 12 (bispecific antibody, human IgG1, kappa, L234A L235A)
chain 1: not shown
chain 2: DIQMTQSPSSLSASVGDRVTITCKSSQSLLYTSSQKNYLAWYQQKPGKAPKLLIYWASTRESGVPSRFSGSGSGTDFTLTISSLQPEDFATYYCQQYYAYPWTFGQGTKVEIKRTVAAPSVFIFPPSDEQLKSGTASVVCLLNNFYPREAKVQWKVDNALQSGNSQESVTEQDSKDSTYSLSSTLTLSKADYEKHKVYACEVTHQGLSSPVTKSFNRGECGGGGSGGGGSGGGGSGGGGSGGGGSGGGGSGGGGSGGGGSEVQLVESGGGLVQPGGSLRLSCAASGYTFTSYWLHWVRQAPGKGLEWVGMIDPSNSDTRFNPNFKDRFTISADTSKNTAYLQMNSLRAEDTAVYYCATYRSYVTPLDYWGQGTLVTVSSASTKGPSVFPLAPSSKSTSGGTAALGCLVKDYFPEPVTVSWNSGALTSGVHTFPAVLQSSGLYSLSSVVTVPSSSLGTQTYICNVNHKPSNTKVDKKVEPKSCDKTHTCPPCPAPEAAGGPSVFLFPPKPKDTLMISRTPEVTCVVVDVSHEDPEVKFNWYVDGVEVHNAKTKPREEQYNSTYRVVSVLTVLHQDWLNGKEYKCKVSNKALPAPIEKTISKAKGQPREPQVYTLPPCREEMTKNQVSLSCAVKGFYPSDIAVEWESNGQPENNYKTTPPVLDSDGSFFLVSKLTVDKSRWQQGNVFSCSVMHEALHNHYTQKSLSLSPGK
notes: 1+1 scFab knob-in-hole format; also called Basb 12
Turning to B1, in assay [1], the 50% effective concentration (EC50 (read off the curve)) is roughly 2 nM.

B2: Nova-5097 (antibody, V domains shown)
VH: QVQLVQSGAEVKKPGSSVKVSCKASGGTFSSYAISWVRQAPGQGLEWMGGIDPFGTANYAQKFQGRVTITADESTSTAYMELSSLRSEDTAVYYCARVYQDVWGQGTLVTVSS
VL: DIVMTQSPDSLAVSLGERATINCRSSQSILYGINNNFLGWYQQKPGQPPKLLIYWASTRESGVPDRFSGSGSGTDFTLTISSLQAEDVAVYYCQQYAFGWTFGQGTKVEIK
notes: Parent cMET mAb
Take B2: the binding result in assay [2] was “binds”.

B3: Nova-5098 (antibody, V domains shown)
VH: QVQLVQSGAEVKKPGSSVKVSCKASGGTFSSYAISWVRQAPGQGLEWMGGIDPFGTANYAQKFQGRVTITADESTSTAYMELSSLRSEDTAVYYCARVYQDVWGQGTLVTVSS
VL: DIVMTQSPDSLAVSLGERATINCRSSQSILYGINNNFLGWYQQKPGQPPKLLIYWASTRESGVPDRFSGSGSGTDFTLTISSLQAEDVAVYYCLQYSDEPWTFGQGTKVEIK
notes: Parent cMET mAb
Turning to B3, the binding result in assay [2] is reported as “binds”.

B4: Nova-5185 (antibody, V domains shown)
VH: QVQLVQSGAEVKKPGSSVKVSCKASGGTFSSYAISWVRQAPGQGLEWMGGIDPIMGTEYAQKFQGRVTITADESTSTAYMELSSLRSEDTAVYYCARVYQDVWGQGTLVTVSS
VL: DIVMTQSPDSLAVSLGERATINCRSSQSILYGINNNFLGWYQQKPGQPPKLLIYWASTRESGVPDRFSGSGSGTDFTLTISSLQAEDVAVYYCQQYAYEPNTFGQGTKVEIK
notes: Parent cMET mAb
With B4, the binding result in assay [2] is listed as “binds”.

B5: ABF-46 (antibody, V domains shown)
VH: EVKLVESGGGLVQPGGSLRLSCATSGFTFTDYYMSWVRQPPGKALEWLGFIRNKANGYTTEYSASVKGRFTISRDNSQSILYLQMDTLRAEDSATYYCARDNWFAYWGQGTLVTVSA
VL: DILMTQSPSSLTVSAGEKVTMSCKSSQSLLASGNQNNYLAWHQQKPGRSPKMLIIWASTRVSGVPDRFIGSGSGTDFTLTINSVQAEDLAVYYCQQSYSAPLTFGAGTKLELK
Turning to B5, the binding result in assay [2] is “binds”.

B6: AZD9592 (bispecific antibody, human IgG1, kappa, lambda)
anti EGFR heavy chain: QVQLVQSGAEVKKPGSSVKVSCKASGGTFSDNDFSWVRQAPGQGLEWMGAIVAVFRTETYAQKFQDRVKITADISTRTTYMELSSLRSEDTAVYYCARRLMSAISGPGAPLLMWGQGTLVTVSSASTKGPSVCPLAPSSKSTSGGTAALGCLVKDYFPEPVTVSWNSGALTSGVHTFPAVLQSSGLYSLSSVVTVPSSSLGTQTYICNVNHKPSNTKVDKRVEPKSVDKTHTCPPCPAPEFEGGPSVFLFPPKPKDTLMISRTPEVTCVVVDVSHEDPEVKFNWYVDGVEVHNAKTKPREEQYNSTYRVVSVLTVLHQDWLNGKEYKCKVSNKALPASIEKTISKAKGQPREPQVYTLPPCREEMTKNQVSLWCLVKGFYPSDIAVEWESNGQPENNYKTTPPVLDSDGSFFLYSKLTVDKSRWQQGNVFSCSVMHEALHNHYTQKSLSLSPGK
anti EGFR light chain: QSALTQPRSVSGSPGQSVTISCTGTSSDVGGYNYVSWYQQHPGKAPKLMIYDVSKRPSGVPDRFSGSKSGNTASLTISGLQAEDEADYYCSSYTSSDTLEIFGGGTKLTVLGQPKAAPSVTLFPPCSEELQANKATLVCLISDFYPGAVTVAWKADSSPVKAGVETTTPSKQSNNKYAASSYLSLTPEQWKSHRSYSCQVTHEGSTVEKTVAPTEVS
anti cMET heavy chain: QVQLVQSGAEVKKPGASVKVSCKASGYTFTDYYIHWVRQATGQGLEWMGWMNPNSGNTGYAQKFQGRVTMTRDTSISTAYMELSSLRSEDTAVYYCARGQGYTHSWGQGTMVTVSSASTKGPSVFPLAPSSKSTSGGTAALGCLVKDYFPEPVTVSWNSGALTSGVHTFPAVLQSSGLYSLSSVVTVPSSSLGTQTYICNVNHKPSNTKVDKRVEPKSCDKTHTCPPCPAPEFEGGPSVFLFPPKPKDTLMISRTPEVTCVVVDVSHEDPEVKFNWYVDGVEVHNAKTKPREEQYNSTYRVVSVLTVLHQDWLNGKEYKCKVSNKALPASIEKTISKAKGQPREPQVCTLPPSREEMTKNQVSLSCAVKGFYPSDIAVEWESNGQPENNYKTTPPVLDSDGSFFLVSKLTVDKSRWQQGNVFSCSVMHEALHNHYTQKSLSLSPGK
anti cMET light chain: DIQMTQSPSTLSASVGDRVTITCRASEGIYHWLAWYQQKPGKAPKLLIYKASSLASGVPSRFSGSGSGTEFTLTISSLQPDDFATYYCQQYSNYPPTFGGGTKLEIKRTVAAPSVFIFPPSDEQLKSGTASVVCLLNNFYPREAKVQWKVDNALQSGNSQESVTEQDSKDSTYSLSSTLTLSKADYEKHKVYACEVTHQGLSSPVTKSFNRGEC
Take B6: the “EC50 (read off the curve)” value in assay [3] was roughly 2 nM; in assay [4] it was roughly 2 nM; in [5], roughly 0.9 nM; in assay [6], roughly 0.9 nM.

B7: AZD9592-Ab (bispecific antibody, human IgG1, kappa, lambda)
anti-EGFR heavy chain: QVQLVQSGAEVKKPGSSVKVSCKASGGTFSDNDFSWVRQAPGQGLEWMGAIVAVFRTETYAQKFQDRVKITADISTRTTYMELSSLRSEDTAVYYCARRLMSAISGPGAPLLMWGQGTLVTVSSASTKGPSVCPLAPSSKSTSGGTAALGCLVKDYFPEPVTVSWNSGALTSGVHTFPAVLQSSGLYSLSSVVTVPSSSLGTQTYICNVNHKPSNTKVDKRVEPKSVDKTHTCPPCPAPEFEGGPSVFLFPPKPKDTLMISRTPEVTCVVVDVSHEDPEVKFNWYVDGVEVHNAKTKPREEQYNSTYRVVSVLTVLHQDWLNGKEYKCKVSNKALPASIEKTISKAKGQPREPQVYTLPPCREEMTKNQVSLWCLVKGFYPSDIAVEWESNGQPENNYKTTPPVLDSDGSFFLYSKLTVDKSRWQQGNVFSCSVMHEALHNHYTQKSLSLSPGK
anti-EGFR light chain: QSALTQPRSVSGSPGQSVTISCTGTSSDVGGYNYVSWYQQHPGKAPKLMIYDVSKRPSGVPDRFSGSKSGNTASLTISGLQAEDEADYYCSSYTSSDTLEIFGGGTKLTVLGQPKAAPSVTLFPPCSEELQANKATLVCLISDFYPGAVTVAWKADSSPVKAGVETTTPSKQSNNKYAASSYLSLTPEQWKSHRSYSCQVTHEGSTVEKTVAPTEVS
anti-cMET heavy chain: QVQLVQSGAEVKKPGASVKVSCKASGYTFTDYYIHWVRQATGQGLEWMGWMNPNSGNTGYAQKFQGRVTMTRDTSISTAYMELSSLRSEDTAVYYCARGQGYTHSWGQGTMVTVSSASTKGPSVFPLAPSSKSTSGGTAALGCLVKDYFPEPVTVSWNSGALTSGVHTFPAVLQSSGLYSLSSVVTVPSSSLGTQTYICNVNHKPSNTKVDKRVEPKSCDKTHTCPPCPAPEFEGGPSVFLFPPKPKDTLMISRTPEVTCVVVDVSHEDPEVKFNWYVDGVEVHNAKTKPREEQYNSTYRVVSVLTVLHQDWLNGKEYKCKVSNKALPASIEKTISKAKGQPREPQVCTLPPSREEMTKNQVSLSCAVKGFYPSDIAVEWESNGQPENNYKTTPPVLDSDGSFFLVSKLTVDKSRWQQGNVFSCSVMHEALHNHYTQKSLSLSPGK
anti-cMET light chain: DIQMTQSPSTLSASVGDRVTITCRASEGIYHWLAWYQQKPGKAPKLLIYKASSLASGVPSRFSGSGSGTEFTLTISSLQPDDFATYYCQQYSNYPPTFGGGTKLEIKRTVAAPSVFIFPPSDEQLKSGTASVVCLLNNFYPREAKVQWKVDNALQSGNSQESVTEQDSKDSTYSLSSTLTLSKADYEKHKVYACEVTHQGLSSPVTKSFNRGEC
notes: also called RAA22/B09-TM
Consider B7, for which the “EC50 (read off the curve)” value in assay [7] was roughly 2 nM; in assay [8], roughly 2 nM; in assay [9], roughly 9 nM; in assay [10], roughly 9 nM; in assay [11], roughly 4 nM; in assay [12] it was roughly 4 nM.
